This note sets out measurements from patent publication US20050208041A1 (Bristol-Myers Squibb, published 2005).

Assay [1] deals with T1, purified recombinant IFNAR-1 extracellular fragment (human, UniProt P17181 28-436).
T1 construct: extracellular domain; also called soluble IFNAR-1; soluble IFNAR
T1 sequence (looked up): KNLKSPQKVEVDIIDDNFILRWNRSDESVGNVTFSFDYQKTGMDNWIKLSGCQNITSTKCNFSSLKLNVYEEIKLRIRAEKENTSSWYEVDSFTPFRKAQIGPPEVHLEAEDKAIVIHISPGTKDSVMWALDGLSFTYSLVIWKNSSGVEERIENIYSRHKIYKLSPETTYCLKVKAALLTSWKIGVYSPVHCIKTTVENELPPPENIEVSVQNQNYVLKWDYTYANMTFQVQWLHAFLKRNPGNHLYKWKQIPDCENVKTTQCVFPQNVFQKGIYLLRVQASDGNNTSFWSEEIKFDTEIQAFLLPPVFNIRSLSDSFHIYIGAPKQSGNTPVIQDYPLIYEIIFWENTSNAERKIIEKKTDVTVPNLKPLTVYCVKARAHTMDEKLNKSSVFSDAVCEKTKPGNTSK
The assay is described as follows: Biacore, response on IFNAR-1 (flow cell 2) divided by response on anti-human IgG Fc (flow cell 4). From the text: A series of antibodies were constructed with reduced numbers of potential T-cell epitopes. These included heavy chain variants M3-A and M3-B in which residues were changed in CDR regions and DI M3 in which framework residues were altered. De-immunized light chains were also constructed termed K1-C, K1-D, K1-E and DI K1. The antibodies were expressed and purified before analysis by Biacore. A Biacore chip was used with IFNAR-1 coated on Flow cell 2 at 690 RU and anti-human IgG Fc on flow cell 4 at 5000 RU. Binding of the antibody to IFNAR-1 relative to anti-human IgG Fc was determined by the ratio of response at flow cell 2 divided by flow cell 4 (Fc2/Fc4).

Assay [2] addresses T1, purified recombinant IFNAR-1 …. The assay is described as follows: Biacore, maximal association on IFNAR-1 relative to M3K1. The source says: Pools 4 and 11 were selected for further study and the individual antibodies in each pool were produced and expressed separately. The sequences of these individual antibodies were as shown in SEQ ID NO:12 of FIG. 1F and SEQ ID NO: 13 of FIG. 1G. The data is presented as maximal association relative to M3K1. […]

B1: M3 heavy chain with K1-CD light chain (antibody, human IgG4, V domains shown)
VH: EVQLLESGGGLVQPGGSLRLSCAFSGFTLSTSGMGIGWVRQAPGKGLEWVAHIWWDDDKYYNPSLKSRFTISRDTSKNTVYLQMNSLRAEDTAVYYCARNYYPYDAWFDYWGQGTLVTVS
VL: DIQMTQSPSSLSASVGDRVTITCSASTSINSNHLNWYQQKPGKAPKLLIYRTSILASGVPSRFSGSGSGTSFTLTISSLQPEDFATYYCQQGSNIPFTFGQGTKVEIKR
notes: also called M3 K1-C/D
On to B1, for which, in assay [1], the “% activity relative to H3K1” value was 57% and the Fc2/Fc4 was 0.17.

B2: M3-4 (X = L) heavy chain with K1 light chain (antibody, V domains shown)
VH: EVQLLESGGGLVQPGGSLRLSCAFSGFTLSTSGMGIGWVRQAPGKGLEWVAHIWWDDDKYYNPSLKSRFTISRDTSKNTVYLQMNSLRAEDTAVYYCARNYYLYDAWFDYWGQGTLVTVS
VL: DIQMTQSPSSLSASVGDRVTITCSASSSINSNHLHWYQQKPGKAPKLLIYRTSILASGVPSRFSGSGSGTSFTLTISSLQPEDFATYYCQQGSNIPFTFGQGTKVEIK
notes: the position is counted within CDR3, not on the entry; also called M3-4 L
In the case of B2, the “% activity relative to M3K1” value in assay [2] came out at 126%.

B3: M3-4 (X = K) heavy chain with K1 light chain (antibody, V domains shown)
VH: EVQLLESGGGLVQPGGSLRLSCAFSGFTLSTSGMGIGWVRQAPGKGLEWVAHIWWDDDKYYNPSLKSRFTISRDTSKNTVYLQMNSLRAEDTAVYYCARNYYKYDAWFDYWGQGTLVTVS
VL: DIQMTQSPSSLSASVGDRVTITCSASSSINSNHLHWYQQKPGKAPKLLIYRTSILASGVPSRFSGSGSGTSFTLTISSLQPEDFATYYCQQGSNIPFTFGQGTKVEIK
notes: Position counted within VH CDR3; also called M3-4 K
For B3, in assay [2], the “% activity relative to M3K1” value is 86%.

B4: M3-4 (X = G) heavy chain with K1 light chain (antibody, V domains shown)
VH: EVQLLESGGGLVQPGGSLRLSCAFSGFTLSTSGMGIGWVRQAPGKGLEWVAHIWWDDDKYYNPSLKSRFTISRDTSKNTVYLQMNSLRAEDTAVYYCARNYYGYDAWFDYWGQGTLVTVS
VL: DIQMTQSPSSLSASVGDRVTITCSASSSINSNHLHWYQQKPGKAPKLLIYRTSILASGVPSRFSGSGSGTSFTLTISSLQPEDFATYYCQQGSNIPFTFGQGTKVEIK
notes: Position counted within VH CDR3; also called M3-4 G
For B4, in assay [2], the “% activity relative to M3K1” value amounted to 114%.

B5: M3-4 (X = D) heavy chain with K1 light chain (antibody, V domains shown)
VH: EVQLLESGGGLVQPGGSLRLSCAFSGFTLSTSGMGIGWVRQAPGKGLEWVAHIWWDDDKYYNPSLKSRFTISRDTSKNTVYLQMNSLRAEDTAVYYCARNYYDYDAWFDYWGQGTLVTVS
VL: DIQMTQSPSSLSASVGDRVTITCSASSSINSNHLHWYQQKPGKAPKLLIYRTSILASGVPSRFSGSGSGTSFTLTISSLQPEDFATYYCQQGSNIPFTFGQGTKVEIK
notes: Position counted within VH CDR3; also called M3-4 D
Regarding B5, in assay [2], the “% activity relative to M3K1” value amounted to 100%.

B6: M3-4 (X = C) heavy chain with K1 light chain (antibody, V domains shown)
VH: EVQLLESGGGLVQPGGSLRLSCAFSGFTLSTSGMGIGWVRQAPGKGLEWVAHIWWDDDKYYNPSLKSRFTISRDTSKNTVYLQMNSLRAEDTAVYYCARNYYCYDAWFDYWGQGTLVTVS
VL: DIQMTQSPSSLSASVGDRVTITCSASSSINSNHLHWYQQKPGKAPKLLIYRTSILASGVPSRFSGSGSGTSFTLTISSLQPEDFATYYCQQGSNIPFTFGQGTKVEIK
notes: Position counted within VH CDR3; also called M3-4 C
On to B6, for which the “% activity relative to M3K1” value in assay [2] is 123%.

B7: M3-AB heavy chain with K1-CD light chain (antibody, human IgG4, V domains shown)
VH: EVQLLESGGGLVQPGGSLRLSCAFSGFTLSTSGAGIGWVRQAPGKGLEWVAHIWWDDDKYYNPSLKARFTISRDTSKNTVYLQMNSLRAEDTAVYYCARNYYPYDAWFDYWGQGTLVTVS
VL: DIQMTQSPSSLSASVGDRVTITCSASTSINSNHLNWYQQKPGKAPKLLIYRTSILASGVPSRFSGSGSGTSFTLTISSLQPEDFATYYCQQGSNIPFTFGQGTKVEIKR
notes: also called M3-A/B K1-C/D
On to B7, for which, in assay [1], the “% activity relative to H3K1” value came to 23% and the Fc2/Fc4 worked out at 0.07.

B8: M3-4 (X = H) heavy chain with K1 light chain (antibody, V domains shown)
VH: EVQLLESGGGLVQPGGSLRLSCAFSGFTLSTSGMGIGWVRQAPGKGLEWVAHIWWDDDKYYNPSLKSRFTISRDTSKNTVYLQMNSLRAEDTAVYYCARNYYHYDAWFDYWGQGTLVTVS
VL: DIQMTQSPSSLSASVGDRVTITCSASSSINSNHLHWYQQKPGKAPKLLIYRTSILASGVPSRFSGSGSGTSFTLTISSLQPEDFATYYCQQGSNIPFTFGQGTKVEIK
notes: Position counted within VH CDR3; also called M3-4 H
In the case of B8, in assay [2], the “% activity relative to M3K1” value worked out at 79%.

B9: M3 heavy chain with K1-DE light chain (antibody, human IgG4, V domains shown)
VH: EVQLLESGGGLVQPGGSLRLSCAFSGFTLSTSGMGIGWVRQAPGKGLEWVAHIWWDDDKYYNPSLKSRFTISRDTSKNTVYLQMNSLRAEDTAVYYCARNYYPYDAWFDYWGQGTLVTVS
VL: DIQMTQSPSSLSASVGDRVTITCSASSSINSNHLNWYQQKPGKAPKLLIYRTSILASGVPSRFSGSGSGTSFTLTISSLQPEDFATYYCQQTSNIPFTFGQGTKVEIKR
notes: also called M3 K1-D/E
For the molecule B9, the Fc2/Fc4 in assay [1] was -0.1.

B10: M3-4 (X = A) heavy chain with K1 light chain (antibody, V domains shown)
VH: EVQLLESGGGLVQPGGSLRLSCAFSGFTLSTSGMGIGWVRQAPGKGLEWVAHIWWDDDKYYNPSLKSRFTISRDTSKNTVYLQMNSLRAEDTAVYYCARNYYAYDAWFDYWGQGTLVTVS
VL: DIQMTQSPSSLSASVGDRVTITCSASSSINSNHLHWYQQKPGKAPKLLIYRTSILASGVPSRFSGSGSGTSFTLTISSLQPEDFATYYCQQGSNIPFTFGQGTKVEIK
notes: Position counted within VH CDR3; also called M3-4 A
In the case of B10, the “% activity relative to M3K1” value in assay [2] is 107%.

B11: M3 heavy chain with K1-CDE light chain (antibody, human IgG4, V domains shown)
VH: EVQLLESGGGLVQPGGSLRLSCAFSGFTLSTSGMGIGWVRQAPGKGLEWVAHIWWDDDKYYNPSLKSRFTISRDTSKNTVYLQMNSLRAEDTAVYYCARNYYPYDAWFDYWGQGTLVTVS
VL: DIQMTQSPSSLSASVGDRVTITCSASTSINSNHLNWYQQKPGKAPKLLIYRTSILASGVPSRFSGSGSGTSFTLTISSLQPEDFATYYCQQTSNIPFTFGQGTKVEIKR
notes: also called M3 K1-C/D/E
For the molecule B11, the Fc2/Fc4 in assay [1] is -0.1.

B12: M3-A heavy chain with K1 light chain (antibody, human IgG4, V domains shown)
VH: EVQLLESGGGLVQPGGSLRLSCAFSGFTLSTSGAGIGWVRQAPGKGLEWVAHIWWDDDKYYNPSLKSRFTISRDTSKNTVYLQMNSLRAEDTAVYYCARNYYPYDAWFDYWGQGTLVTVS
VL: DIQMTQSPSSLSASVGDRVTITCSASSSINSNHLHWYQQKPGKAPKLLIYRTSILASGVPSRFSGSGSGTSFTLTISSLQPEDFATYYCQQGSNIPFTFGQGTKVEIKR
notes: also called M3-A K1
On to B12, for which, in assay [1], the “% activity relative to H3K1” value is 17% and the Fc2/Fc4 stood at 0.05.

B13: M3-4 (X = E) heavy chain with K1 light chain (antibody, V domains shown)
VH: EVQLLESGGGLVQPGGSLRLSCAFSGFTLSTSGMGIGWVRQAPGKGLEWVAHIWWDDDKYYNPSLKSRFTISRDTSKNTVYLQMNSLRAEDTAVYYCARNYYEYDAWFDYWGQGTLVTVS
VL: DIQMTQSPSSLSASVGDRVTITCSASSSINSNHLHWYQQKPGKAPKLLIYRTSILASGVPSRFSGSGSGTSFTLTISSLQPEDFATYYCQQGSNIPFTFGQGTKVEIK
notes: Position counted within VH CDR3; also called M3-4 E
On to B13, for which the “% activity relative to M3K1” value in assay [2] is 128%.

B14: M3 heavy chain with K1-E light chain (antibody, human IgG4, V domains shown)
VH: EVQLLESGGGLVQPGGSLRLSCAFSGFTLSTSGMGIGWVRQAPGKGLEWVAHIWWDDDKYYNPSLKSRFTISRDTSKNTVYLQMNSLRAEDTAVYYCARNYYPYDAWFDYWGQGTLVTVS
VL: DIQMTQSPSSLSASVGDRVTITCSASSSINSNHLHWYQQKPGKAPKLLIYRTSILASGVPSRFSGSGSGTSFTLTISSLQPEDFATYYCQQTSNIPFTFGQGTKVEIKR
notes: also called M3 K1-E
As to B14, in assay [1], the Fc2/Fc4 is -0.05.

B15: M3-AB heavy chain with K1 light chain (antibody, human IgG4, V domains shown)
VH: EVQLLESGGGLVQPGGSLRLSCAFSGFTLSTSGAGIGWVRQAPGKGLEWVAHIWWDDDKYYNPSLKARFTISRDTSKNTVYLQMNSLRAEDTAVYYCARNYYPYDAWFDYWGQGTLVTVS
VL: DIQMTQSPSSLSASVGDRVTITCSASSSINSNHLHWYQQKPGKAPKLLIYRTSILASGVPSRFSGSGSGTSFTLTISSLQPEDFATYYCQQGSNIPFTFGQGTKVEIKR
notes: also called M3-A/B K1
Regarding B15, in assay [1], the “% activity relative to H3K1” value turned out to be 43% and the Fc2/Fc4 worked out at 0.13.

B16: M3 heavy chain with K1-D light chain (antibody, human IgG4, V domains shown)
VH: EVQLLESGGGLVQPGGSLRLSCAFSGFTLSTSGMGIGWVRQAPGKGLEWVAHIWWDDDKYYNPSLKSRFTISRDTSKNTVYLQMNSLRAEDTAVYYCARNYYPYDAWFDYWGQGTLVTVS
VL: DIQMTQSPSSLSASVGDRVTITCSASSSINSNHLNWYQQKPGKAPKLLIYRTSILASGVPSRFSGSGSGTSFTLTISSLQPEDFATYYCQQGSNIPFTFGQGTKVEIKR
notes: also called M3 K1-D
Take B16: in assay [1], the “% activity relative to H3K1” value stood at 30% and the Fc2/Fc4 came out at 0.09.

B17: M3-4 (X = I) heavy chain with K1 light chain (antibody, V domains shown)
VH: EVQLLESGGGLVQPGGSLRLSCAFSGFTLSTSGMGIGWVRQAPGKGLEWVAHIWWDDDKYYNPSLKSRFTISRDTSKNTVYLQMNSLRAEDTAVYYCARNYYIYDAWFDYWGQGTLVTVS
VL: DIQMTQSPSSLSASVGDRVTITCSASSSINSNHLHWYQQKPGKAPKLLIYRTSILASGVPSRFSGSGSGTSFTLTISSLQPEDFATYYCQQGSNIPFTFGQGTKVEIK
notes: Position counted within VH CDR3; also called M3-4 I
On to B17, for which the “% activity relative to M3K1” value in assay [2] is 106%.
